Test results as given in patent CN110156894A (JIANGSU NUOMAIBO BIOMEDICAL TECH CO LTD, dated 2019).
Where a chain is given by its changes, count along the chain named. One block for each binder: values may come before it.

What was measured:
重组TEM8蛋白(义翘神州) [1] = target: T1, 重组TEM8蛋白(义翘神州) (human, UniProt Q9H6X2 33-321, limits assumed); assay: ELISA, antibody on plate-bound TEM8 protein, anti-human IgG-HRP, OD450
T1 construct: also called TEM8重组蛋白; recombinant TEM8 protein (Sino Biological)
T1 sequence (looked up): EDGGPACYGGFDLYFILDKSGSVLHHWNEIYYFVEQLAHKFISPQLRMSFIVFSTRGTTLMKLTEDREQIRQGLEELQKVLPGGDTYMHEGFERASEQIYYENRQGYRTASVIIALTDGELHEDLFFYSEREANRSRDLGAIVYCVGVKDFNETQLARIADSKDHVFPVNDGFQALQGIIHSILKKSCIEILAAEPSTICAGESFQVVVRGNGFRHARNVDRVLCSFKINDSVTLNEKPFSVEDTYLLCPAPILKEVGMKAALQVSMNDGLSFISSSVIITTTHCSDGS

TEM8 on TEM8过表达细胞 [2] = target: T2, TEM8 on TEM8过表达细胞 (UniProt Q9H6X2 33-564, limits assumed); assay: cell-based assay on TEM8 overexpressing cells, anti-human-IgG-Eu fluorescence
T2 construct: whole, on cells; One molecule is used for cell-surface TEM8 on both cell lines; the cell line is named under assay; also called TEM8稳定过表达细胞株 (CHO-K1); TEM8过表细胞

重组TEM8蛋白(义翘神州) [3] = target: T1, 重组TEM8蛋白(义翘神州); assay: ELISA on plate-bound TEM8 protein, method as in Example 2
TEM8 on TEM8过表达细胞 [4] = target: T2, TEM8 on TEM8过表达细胞; assay: cell-based ELISA on HCT116/TEM8 cells

- EC50 (重组TEM8蛋白(义翘神州) [1]): 0.00317 µg/mL
- EC50 (TEM8 on TEM8过表达细胞 [2]): 0.105 µg/mL
- EC50 (重组TEM8蛋白(义翘神州) [3]): 0.00176 µg/mL
- EC50 (TEM8 on TEM8过表达细胞 [4]): 0.128 µg/mL
B1: HUT104 (antibody, human IgG1, kappa, V domains shown)
VH: EVQLQESGPGLVKPSETLSLTCTVTGDSISSDYWNWVRQAPGQRLEWMGYISYSGNTYTNPSLKSRITINRDTSKNQFSLQLNSVTPEDTAVYYCARYKTITSAFDVWGQGTTVTVSS
VL: EIVMTQSPATLSVSPGERATLSCRASQNIRDFLHWYQQKPGQAPRLLIYYASQSISGIPARFSGSGSGTDFTLTISSLEPEDFAVYYCQNGHSFPYTFGGGTKVEIKR
notes: also called TEM8抗体HUT104; 单克隆抗体HUT104

- EC50 (重组TEM8蛋白(义翘神州) [1]): 0.00357 µg/mL
- EC50 (TEM8 on TEM8过表达细胞 [2]): 0.113 µg/mL
B2: HUT105 (antibody, human IgG1, kappa, V domains shown)
VH: B1 VH with A104M
VL: B1 VL
notes: also called TEM8抗体; 单克隆抗体HUT105

- EC50 (重组TEM8蛋白(义翘神州) [1]): 0.00453 µg/mL
- EC50 (TEM8 on TEM8过表达细胞 [2]): 0.13 µg/mL
B3: HUT103 (antibody, human IgG1, kappa, V domains shown)
VH: B1 VH with A104V, F105L
VL: B1 VL
notes: also called TEM8抗体; 单克隆抗体HUT103
